B1: Pistol ribozyme (parent)
chain: GGGUCGUUGUUCCAUAAUCGCGUGGAUAUGGCACGCAAGUUUCUACCGGGCACCGUAAAUGUCCGACUGGAGCCGUUCGGGCGGCUAUAAACAGACCUCAGGCCCGAAGCGUGGCGGCACCUGCCGCCGGUGGUAAAAAAGAUCGGAAGAGCACACGUCU

Variants of: B1
Assay: aptazyme ON/OFF ratio, guanine; higher = stronger switching; co-transcriptional cleavage with and without guanine

In order of rising “aptazyme ON/OFF ratio” value:
1. GGGUCGAUUCCUCAUAAUCGCGUGGAUAUGGCACGCAAGUUUCUACCGGGCACCGUAAAUGUCCGACUGGAGCCGUUCGGGCGGCUAUAAACAGACCUCAGGCCCGAAGCGUGGCGGCACCUGCCGCCGGUGGUAAAAAAGAUCGGAAGAGCACACGUCU  1.03
2. GGGUCGAGUCCCAAUAAUCGCGUGGAUAUGGCACGCAAGUUUCUACCGGGCACCGUAAAUGUCCGACUGGAGCCGUUCGGGCGGCUAUAAACAGACCUCAGGCCCGAAGCGUGGCGGCACCUGCCGCCGGUGGUAAAAAAGAUCGGAAGAGCACACGUCU  1.04
3. GGGUCGACAUUCGAUAAUCGCGUGGAUAUGGCACGCAAGUUUCUACCGGGCACCGUAAAUGUCCGACUGGAGCCGUUCGGGCGGCUAUAAACAGACCUCAGGCCCGAAGCGUGGCGGCACCUGCCGCCGGUGGUAAAAAAGAUCGGAAGAGCACACGUCU  1.04
4. GGGUCGCAGCCCAAUAAUCGCGUGGAUAUGGCACGCAAGUUUCUACCGGGCACCGUAAAUGUCCGACUGGAGCCGUUCGGGCGGCUAUAAACAGACCUCAGGCCCGAAGCGUGGCGGCACCUGCCGCCGGUGGUAAAAAAGAUCGGAAGAGCACACGUCU  1.04
5. GGGUCGUAUCCUCAUAAUCGCGUGGAUAUGGCACGCAAGUUUCUACCGGGCACCGUAAAUGUCCGACUGGAGCCGUUCGGGCGGCUAUAAACAGACCUCAGGCCCGAAGCGUGGCGGCACCUGCCGCCGGUGGUAAAAAAGAUCGGAAGAGCACACGUCU  1.04
6. GGGUCGGAAAUGAAUAAUCGCGUGGAUAUGGCACGCAAGUUUCUACCGGGCACCGUAAAUGUCCGACUGGAGCCGUUCGGGCGGCUAUAAACAGACCUCAGGCCCGAAGCGUGGCGGCACCUGCCGCCGGUGGUAAAAAAGAUCGGAAGAGCACACGUCU  1.06
7. GGGUCGAUGACUGAUAAUCGCGUGGAUAUGGCACGCAAGUUUCUACCGGGCACCGUAAAUGUCCGACUGGAGCCGUUCGGGCGGCUAUAAACAGACCUCAGGCCCGAAGCGUGGCGGCACCUGCCGCCGGUGGUAAAAAAGAUCGGAAGAGCACACGUCU  1.07
8. GGGUCGCAUUACCAUAAUCGCGUGGAUAUGGCACGCAAGUUUCUACCGGGCACCGUAAAUGUCCGACUGGAGCCGUUCGGGCGGCUAUAAACAGACCUCAGGCCCGAAGCGUGGCGGCACCUGCCGCCGGUGGUAAAAAAGAUCGGAAGAGCACACGUCU  1.08
9. GGGUCGUCGGUAGAUAAUCGCGUGGAUAUGGCACGCAAGUUUCUACCGGGCACCGUAAAUGUCCGACUGGAGCCGUUCGGGCGGCUAUAAACAGACCUCAGGCCCGAAGCGUGGCGGCACCUGCCGCCGGUGGUAAAAAAGAUCGGAAGAGCACACGUCU  1.11
10. GGGUCGCUAGUUUAUAAUCGCGUGGAUAUGGCACGCAAGUUUCUACCGGGCACCGUAAAUGUCCGACUGGAGCCGUUCGGGCGGCUAUAAACAGACCUCAGGCCCGAAGCGUGGCGGCACCUGCCGCCGGUGGUAAAAAAGAUCGGAAGAGCACACGUCU  1.11
11. GGGUCGCACCAAGAUAAUCGCGUGGAUAUGGCACGCAAGUUUCUACCGGGCACCGUAAAUGUCCGACUGGAGCCGUUCGGGCGGCUAUAAACAGACCUCAGGCCCGAAGCGUGGCGGCACCUGCCGCCGGUGGUAAAAAAGAUCGGAAGAGCACACGUCU  1.11
12. GGGUCGGAAACUUAUAAUCGCGUGGAUAUGGCACGCAAGUUUCUACCGGGCACCGUAAAUGUCCGACUGGAGCCGUUCGGGCGGCUAUAAACAGACCUCAGGCCCGAAGCGUGGCGGCACCUGCCGCCGGUGGUAAAAAAGAUCGGAAGAGCACACGUCU  1.11
13. GGGUCGCGGUGUAAUAAUCGCGUGGAUAUGGCACGCAAGUUUCUACCGGGCACCGUAAAUGUCCGACUGGAGCCGUUCGGGCGGCUAUAAACAGACCUCAGGCCCGAAGCGUGGCGGCACCUGCCGCCGGUGGUAAAAAAGAUCGGAAGAGCACACGUCU  1.11
14. GGGUCGAGAAUUGAUAAUCGCGUGGAUAUGGCACGCAAGUUUCUACCGGGCACCGUAAAUGUCCGACUGGAGCCGUUCGGGCGGCUAUAAACAGACCUCAGGCCCGAAGCGUGGCGGCACCUGCCGCCGGUGGUAAAAAAGAUCGGAAGAGCACACGUCU  1.13
15. GGGUCGACUUCGAAUAAUCGCGUGGAUAUGGCACGCAAGUUUCUACCGGGCACCGUAAAUGUCCGACUGGAGCCGUUCGGGCGGCUAUAAACAGACCUCAGGCCCGAAGCGUGGCGGCACCUGCCGCCGGUGGUAAAAAAGAUCGGAAGAGCACACGUCU  1.13
16. GGGUCGUAUUGCAAUAAUCGCGUGGAUAUGGCACGCAAGUUUCUACCGGGCACCGUAAAUGUCCGACUGGAGCCGUUCGGGCGGCUAUAAACAGACCUCAGGCCCGAAGCGUGGCGGCACCUGCCGCCGGUGGUAAAAAAGAUCGGAAGAGCACACGUCU  1.14
17. GGGUCGACGUGCGAUAAUCGCGUGGAUAUGGCACGCAAGUUUCUACCGGGCACCGUAAAUGUCCGACUGGAGCCGUUCGGGCGGCUAUAAACAGACCUCAGGCCCGAAGCGUGGCGGCACCUGCCGCCGGUGGUAAAAAAGAUCGGAAGAGCACACGUCU  1.15
18. GGGUCGCGCUAUUAUAAUCGCGUGGAUAUGGCACGCAAGUUUCUACCGGGCACCGUAAAUGUCCGACUGGAGCCGUUCGGGCGGCUAUAAACAGACCUCAGGCCCGAAGCGUGGCGGCACCUGCCGCCGGUGGUAAAAAAGAUCGGAAGAGCACACGUCU  1.16
19. GGGUCGCUGUGAGAUAAUCGCGUGGAUAUGGCACGCAAGUUUCUACCGGGCACCGUAAAUGUCCGACUGGAGCCGUUCGGGCGGCUAUAAACAGACCUCAGGCCCGAAGCGUGGCGGCACCUGCCGCCGGUGGUAAAAAAGAUCGGAAGAGCACACGUCU  1.17
20. GGGUCGCGAAAUAAUAAUCGCGUGGAUAUGGCACGCAAGUUUCUACCGGGCACCGUAAAUGUCCGACUGGAGCCGUUCGGGCGGCUAUAAACAGACCUCAGGCCCGAAGCGUGGCGGCACCUGCCGCCGGUGGUAAAAAAGAUCGGAAGAGCACACGUCU  1.17
21. GGGUCGUAUCUGGAUAAUCGCGUGGAUAUGGCACGCAAGUUUCUACCGGGCACCGUAAAUGUCCGACUGGAGCCGUUCGGGCGGCUAUAAACAGACCUCAGGCCCGAAGCGUGGCGGCACCUGCCGCCGGUGGUAAAAAAGAUCGGAAGAGCACACGUCU  1.18
22. GGGUCGCUUUGGCAUAAUCGCGUGGAUAUGGCACGCAAGUUUCUACCGGGCACCGUAAAUGUCCGACUGGAGCCGUUCGGGCGGCUAUAAACAGACCUCAGGCCCGAAGCGUGGCGGCACCUGCCGCCGGUGGUAAAAAAGAUCGGAAGAGCACACGUCU  1.18
23. GGGUCGCUAAAAAAUAAUCGCGUGGAUAUGGCACGCAAGUUUCUACCGGGCACCGUAAAUGUCCGACUGGAGCCGUUCGGGCGGCUAUAAACAGACCUCAGGCCCGAAGCGUGGCGGCACCUGCCGCCGGUGGUAAAAAAGAUCGGAAGAGCACACGUCU  1.2
24. GGGUCGCAAUAAGAUAAUCGCGUGGAUAUGGCACGCAAGUUUCUACCGGGCACCGUAAAUGUCCGACUGGAGCCGUUCGGGCGGCUAUAAACAGACCUCAGGCCCGAAGCGUGGCGGCACCUGCCGCCGGUGGUAAAAAAGAUCGGAAGAGCACACGUCU  1.22
25. GGGUCGAAGUGGGAUAAUCGCGUGGAUAUGGCACGCAAGUUUCUACCGGGCACCGUAAAUGUCCGACUGGAGCCGUUCGGGCGGCUAUAAACAGACCUCAGGCCCGAAGCGUGGCGGCACCUGCCGCCGGUGGUAAAAAAGAUCGGAAGAGCACACGUCU  1.24
26. GGGUCGACGUUUGAUAAUCGCGUGGAUAUGGCACGCAAGUUUCUACCGGGCACCGUAAAUGUCCGACUGGAGCCGUUCGGGCGGCUAUAAACAGACCUCAGGCCCGAAGCGUGGCGGCACCUGCCGCCGGUGGUAAAAAAGAUCGGAAGAGCACACGUCU  1.27
27. GGGUCGCGCAACCAUAAUCGCGUGGAUAUGGCACGCAAGUUUCUACCGGGCACCGUAAAUGUCCGACUGGAGCCGUUCGGGCGGCUAUAAACAGACCUCAGGCCCGAAGCGUGGCGGCACCUGCCGCCGGUGGUAAAAAAGAUCGGAAGAGCACACGUCU  1.3
28. GGGUCGCUGCGAUAUAAUCGCGUGGAUAUGGCACGCAAGUUUCUACCGGGCACCGUAAAUGUCCGACUGGAGCCGUUCGGGCGGCUAUAAACAGACCUCAGGCCCGAAGCGUGGCGGCACCUGCCGCCGGUGGUAAAAAAGAUCGGAAGAGCACACGUCU  1.33
29. GGGUCGAGCGCUGAUAAUCGCGUGGAUAUGGCACGCAAGUUUCUACCGGGCACCGUAAAUGUCCGACUGGAGCCGUUCGGGCGGCUAUAAACAGACCUCAGGCCCGAAGCGUGGCGGCACCUGCCGCCGGUGGUAAAAAAGAUCGGAAGAGCACACGUCU  1.37
30. GGGUCGCCUGAACAUAAUCGCGUGGAUAUGGCACGCAAGUUUCUACCGGGCACCGUAAAUGUCCGACUGGAGCCGUUCGGGCGGCUAUAAACAGACCUCAGGCCCGAAGCGUGGCGGCACCUGCCGCCGGUGGUAAAAAAGAUCGGAAGAGCACACGUCU  1.37
31. GGGUCGGGGAGAUAUAAUCGCGUGGAUAUGGCACGCAAGUUUCUACCGGGCACCGUAAAUGUCCGACUGGAGCCGUUCGGGCGGCUAUAAACAGACCUCAGGCCCGAAGCGUGGCGGCACCUGCCGCCGGUGGUAAAAAAGAUCGGAAGAGCACACGUCU  1.37
32. GGGUCGUGAUCGUAUAAUCGCGUGGAUAUGGCACGCAAGUUUCUACCGGGCACCGUAAAUGUCCGACUGGAGCCGUUCGGGCGGCUAUAAACAGACCUCAGGCCCGAAGCGUGGCGGCACCUGCCGCCGGUGGUAAAAAAGAUCGGAAGAGCACACGUCU  1.4
33. GGGUCGCGGCCGCAUAAUCGCGUGGAUAUGGCACGCAAGUUUCUACCGGGCACCGUAAAUGUCCGACUGGAGCCGUUCGGGCGGCUAUAAACAGACCUCAGGCCCGAAGCGUGGCGGCACCUGCCGCCGGUGGUAAAAAAGAUCGGAAGAGCACACGUCU  1.41
34. GGGUCGACGGUCCAUAAUCGCGUGGAUAUGGCACGCAAGUUUCUACCGGGCACCGUAAAUGUCCGACUGGAGCCGUUCGGGCGGCUAUAAACAGACCUCAGGCCCGAAGCGUGGCGGCACCUGCCGCCGGUGGUAAAAAAGAUCGGAAGAGCACACGUCU  1.47
35. GGGUCGAAUGAGUAUAAUCGCGUGGAUAUGGCACGCAAGUUUCUACCGGGCACCGUAAAUGUCCGACUGGAGCCGUUCGGGCGGCUAUAAACAGACCUCAGGCCCGAAGCGUGGCGGCACCUGCCGCCGGUGGUAAAAAAGAUCGGAAGAGCACACGUCU  1.51
36. GGGUCGAGCAAUUAUAAUCGCGUGGAUAUGGCACGCAAGUUUCUACCGGGCACCGUAAAUGUCCGACUGGAGCCGUUCGGGCGGCUAUAAACAGACCUCAGGCCCGAAGCGUGGCGGCACCUGCCGCCGGUGGUAAAAAAGAUCGGAAGAGCACACGUCU  1.57

Reference: the RNAGym collection of RNA variant scans (doi:10.1021/acssynbio.7b00057)
